Data reported in patent US20060140946A1.

Target: human tumor necrosis factor-alpha (hTNFα) (human) (UniProt P01375)
Test: cell-based or functional assay

Chain of human tumor necrosis factor-alpha (hTNFα) (human) (P01375 77-233): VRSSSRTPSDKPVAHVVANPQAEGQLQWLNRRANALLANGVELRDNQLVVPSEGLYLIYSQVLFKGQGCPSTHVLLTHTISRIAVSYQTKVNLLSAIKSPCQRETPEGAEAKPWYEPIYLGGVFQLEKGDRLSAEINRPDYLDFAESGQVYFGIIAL

B1: chimeric mouse/human IgG1 anti-platelet mAb (7E3) (antibody, INN chains, looked up, V domains shown)
VH: EVQLQQSGTVLARPGASVKMSCEASGYTFTNYWMHWVKQRPGQGLEWIGAIYPGNSDTSYIQKFKGKAKLTAVTSTTSVYMELSSLTNEDSAVYYCTLYDGYYVFAYWGQGTLVTVSA
VL: EIVLTQSPVTLSVTPGDSVSLSCRASRDISNNLHWFQQTSHESPRLLIKYASQSMSGIPSRFSGSGSGTDFTLSINSVETEDFGMYFCQQTNSWPYTFGGGTKLEIK
modifications: IgG1
- IL-6 secreted by FS-4 fibroblasts; 4 µg/ml antibody, rhTNF 0.3 ng/ml: 1.6 ng/mL
- IL-6 secreted by FS-4 fibroblasts; 4 µg/ml antibody, rhTNF 1.5 ng/ml: 1.96 ng/mL
- IL-6 secreted by FS-4 fibroblasts; 4 µg/ml antibody, rhTNF 7.5 ng/ml: 2.16 ng/mL
